The values that follow come from paper PMC7337898.

The data set deals with HrrA (phosphorylated response regulator) (Corynebacterium glutamicum ATCC 13032). In words: EMSA. Conditions: 20 mM Tris-HCl pH 7.5, 50 mM KCl, 10 mM MgCl2, 5% glycerol, 0.5 mM EDTA, 0.005% Triton X-100, 20 min, room temperature, 10 nM DNA with 5-1000 nM HrrA …. In general terms: Mobility shift assays separate free from complexed probe on a gel.

Take PhmuO: the Kd (apparent Kd) amounted to 196 nM.

On to PctaE, for which the Kd (apparent Kd) was 125 nM.

In the case of PsigC/katA, where the note is “apparent Kd (text misprints 270 μM)”, the Kd was 271 nM.

Consider PcydA (Pcyd), for which the Kd (apparent Kd) worked out at 350 nM.
